Here are results for one substance from article PMC5740878.

This assay addresses UHRF1-mCherry (UniProt Q96T88). Briefly: FRET or BRET; FLIM-FRET in fixed HeLa cells 24 h after co-transfection of TIP60-eGFP WT/mutants (donor) and UHRF1-mCherry (acceptor) 1:1; two-photon excitation at 930 nm; E = 1-(τDA/τD); one-component and two-component analysis of decays. On the technique in general: Bioluminescence resonance energy transfer reports proximity on the nanometre scale.

TIP60∆CRD-eGFP, sequence (Q92993 whole entry): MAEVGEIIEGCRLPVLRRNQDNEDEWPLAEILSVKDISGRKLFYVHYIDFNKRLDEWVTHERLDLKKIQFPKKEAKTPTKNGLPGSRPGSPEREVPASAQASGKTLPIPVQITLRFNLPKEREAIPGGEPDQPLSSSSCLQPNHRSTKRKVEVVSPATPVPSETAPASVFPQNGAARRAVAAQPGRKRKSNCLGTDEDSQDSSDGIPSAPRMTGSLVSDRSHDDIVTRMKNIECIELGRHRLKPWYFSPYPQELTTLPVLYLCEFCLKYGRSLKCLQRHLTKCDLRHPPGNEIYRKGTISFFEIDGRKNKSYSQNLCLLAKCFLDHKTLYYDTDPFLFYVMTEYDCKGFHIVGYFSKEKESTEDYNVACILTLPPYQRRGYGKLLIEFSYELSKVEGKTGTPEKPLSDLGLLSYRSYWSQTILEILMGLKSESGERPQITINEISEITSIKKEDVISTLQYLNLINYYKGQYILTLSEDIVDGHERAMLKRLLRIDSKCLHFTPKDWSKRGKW
UHRF1-mCherry, sequence (Q96T88 whole entry): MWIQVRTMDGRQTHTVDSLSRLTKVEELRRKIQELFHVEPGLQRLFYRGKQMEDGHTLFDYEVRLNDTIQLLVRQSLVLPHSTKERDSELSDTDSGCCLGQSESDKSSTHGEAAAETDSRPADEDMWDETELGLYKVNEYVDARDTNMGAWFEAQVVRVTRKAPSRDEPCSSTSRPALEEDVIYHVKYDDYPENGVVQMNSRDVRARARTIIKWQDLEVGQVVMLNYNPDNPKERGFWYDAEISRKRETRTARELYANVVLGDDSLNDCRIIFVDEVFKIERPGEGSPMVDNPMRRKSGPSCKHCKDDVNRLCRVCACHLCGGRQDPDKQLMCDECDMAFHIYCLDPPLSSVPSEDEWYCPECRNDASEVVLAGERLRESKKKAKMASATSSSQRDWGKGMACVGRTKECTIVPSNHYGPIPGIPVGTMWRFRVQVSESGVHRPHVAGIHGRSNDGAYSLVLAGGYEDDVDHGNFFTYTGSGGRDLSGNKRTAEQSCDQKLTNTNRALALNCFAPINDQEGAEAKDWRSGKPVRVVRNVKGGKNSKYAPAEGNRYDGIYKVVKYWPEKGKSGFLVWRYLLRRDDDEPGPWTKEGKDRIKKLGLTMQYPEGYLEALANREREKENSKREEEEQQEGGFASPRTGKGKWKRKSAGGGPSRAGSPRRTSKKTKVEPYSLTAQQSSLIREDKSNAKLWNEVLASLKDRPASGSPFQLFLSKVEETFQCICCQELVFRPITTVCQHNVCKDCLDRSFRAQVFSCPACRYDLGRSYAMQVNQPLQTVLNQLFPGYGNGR

As for “TIP60∆CRD-eGFP (from UniProt Q92993 1-513) (natural protein)”, the average FRET came out at 12.2%; the average FRET of the short lifetime component, two-component model amounted to 43%; the mean short lifetime component (τ1), two-component model turned out to be 1.4 ns; the population (α1) of the interacting short lifetime component was determined as 19%.
